The values below come from PMC5962637, “Simultaneous cell disruption and semi-quantitative activity assays for high-throughput screening of thermostable L-asparaginases” (Scientific Reports, 2018).

Substrate in the data set: NC(=O)C[C@H](N)C(=O)O
Put plainly: ammonia release with Nessler's reagent, A450; Michaelis-Menten plot. The format is biochemical, Pyrococcus yayanosii. The conditions noted are these: 50 mM Tris-HCl pH 8.0, 95 °C, substrate range 0.05-2.0 mM.

B1: P. yayanosii CH1 L-asparaginase (pyasnase) (Pyrococcus yayanosii CH1) (protein)
chain: MRLLILGMGGTIASVPSEEGYESSLSVEEILRLAGLELKWEVEARDLLNIDSTLIQPEDWVLLAETVFEAFEEFDGVVITHGTDTLAYTASMLSFMVRNPPVPIVLTGAMRPITEPGSDAPRNLWTALRFAIEGVPGVYVAFMDKVMLGVRVSKVRAVGLNAFQSINYPDIAYVKGNRIHWNAKPPKLEGEPVLDTRHEPRVLVLRLVPGMEGDVLEAALELGYRGIVLEGYGVGGIPYRGRDLLDVVRRVATEIPVVMTTQTLYDGVDLTKYKVGRKALEVGVIPAGDMTKEATITKLMWILGHTRDVGEVRRLMLTNMVGEIGKSA
notes: C-terminal His-tag (in primer R1); codon-optimised synthetic gene, pMA5, Bacillus subtilis 168; homodimer (homology model)
B1: the Km was 6.5 mM.
